T1: recombinant, phycoerythrin (PE) labeled, BCMA extracellular domain-FC fusion protein (BCMA-PE) (Homo sapiens (Human), UniProt Q02223 1-54, phycoerythrin (PE) label, site not stated)
T1 construct: Staining reagent; not shown: Fc part
T1 sequence: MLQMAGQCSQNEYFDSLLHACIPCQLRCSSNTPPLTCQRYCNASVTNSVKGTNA

B1: anti-BCMA CAR of recombinant lentivirus LV 1 (SEQ ID NO: 189) (other)
chain: EIVLTQSPATLSLSPGERATLSCRASQSVSSYLAWYQQKPGQAPRLLIYDASNRATGIPARFSGSGSGTDFTLTISSLEPEDFAVYYCQQRVVYPITFGGGTKVEIKGGGGSGGGGSGGGGSGGGGSQITLKESGPTLVKPTQTLTLTCTFSGFSLSTSGVGVGWIRQPPGKALEWLALIYWNDEKRYSPSLKSRLTITKDTSKNQVVLTMTNMDPVDTAVYYCARDEYGGFDIWGQGTMVTVSSTTTPAPRPPTPAPTIASQPLSLRPEACRPAAGGAVHTRGLDFACDIYIWAPLAGTCGVLLLSLVITLYCKRGRKKLLYIFKQPFMRPVQTTQEEDGCSCRFPEEEEGGCELRVKFSRSADAPAYQQGQNQLYNELNLGRREEYDVLDKRRGRDPEMGGKPRRKNPQEGLYNELQKDKMAEAYSEIGMKGERRRGKGHDGLYQGLSTATKDTYDALHMQALPPR
notes: Chimeric antigen receptor on the surface of transduced cells; CD8α hinge and TM, CD137 costimulatory domain, CD3ζ
B2: anti-BCMA CAR of recombinant lentivirus LV 2 (SEQ ID NO: 237) (other)
chain: EIVLTQSPATLSLSPGERATLSCRASQSVSSYLAWYQQKPGQAPRLLIYDASNRATGIPARFSGSGSGTDFTLTISSLEPEDFAVYYCQQRFDYPITFGGGTKVEIKGGGGSGGGGSGGGGSGGGGSQITLKESGPTLVKPTQTLTLTCTFSGFSLSTSGVGVGWIRQPPGKALEWLALIYWNDDKRYSPSLKSRLTITKDTSKNQVVLTMTNMDPVDTAVYYCARDEYGGFDIWGQGTMVTVSSTTTPAPRPPTPAPTIASQPLSLRPEACRPAAGGAVHTRGLDFACDIYIWAPLAGTCGVLLLSLVITLYCKRGRKKLLYIFKQPFMRPVQTTQEEDGCSCRFPEEEEGGCELRVKFSRSADAPAYQQGQNQLYNELNLGRREEYDVLDKRRGRDPEMGGKPRRKNPQEGLYNELQKDKMAEAYSEIGMKGERRRGKGHDGLYQGLSTATKDTYDALHMQALPPR
notes: Chimeric antigen receptor on the surface of transduced cells; CD8α hinge and TM, CD137, CD3ζ
B3: anti-BCMA CAR of recombinant lentivirus LV 3 (SEQ ID NO: 261) (other)
chain: QVQLVESGGGVVQPGRSLRLSCAASGFTFSSYGMHWVRQAPGKGLEWVAVISYEGSNKYYADSVKGRFTISRDNSKNTLYLQMNSLRAEDTAVYYCARELGDGMDVWGQGTTVTVSSGGGGSGGGGSGGGGSGGGGSEIVLTQSPATLSLSPGERATLSCRASQSVSSYLAWFQQKPGQAPRLLIYDASNRATGIPARFSGSGSGTDFTLTISSLEPEDFAVYYCQQRVDLWTFGGGTKVEIKTTTPAPRPPTPAPTIASQPLSLRPEACRPAAGGAVHTRGLDFACDIYIWAPLAGTCGVLLLSLVITLYCKRGRKKLLYIFKQPFMRPVQTTQEEDGCSCRFPEEEEGGCELRVKFSRSADAPAYQQGQNQLYNELNLGRREEYDVLDKRRGRDPEMGGKPRRKNPQEGLYNELQKDKMAEAYSEIGMKGERRRGKGHDGLYQGLSTATKDTYDALHMQALPPR
notes: as for B2
B4: anti-BCMA CAR of recombinant lentivirus LV 11 (SEQ ID NO: 645) (other)
chain: EVQLLESGGGLVQPGGSLRLSCAASGFTFDEYTMHWFRQAPGKEREFVSAISGGGSETYYADSVKGRFTISRDNSKNTLYLQMNSLRAEDTAVYYCAAGGEEAGVGYWGQGTQVTVSSTTTPAPRPPTPAPTIASQPLSLRPEACRPAAGGAVHTRGLDFACDIYIWAPLAGTCGVLLLSLVITLYCKRGRKKLLYIFKQPFMRPVQTTQEEDGCSCRFPEEEEGGCELRVKFSRSADAPAYQQGQNQLYNELNLGRREEYDVLDKRRGRDPEMGGKPRRKNPQEGLYNELQKDKMAEAYSEIGMKGERRRGKGHDGLYQGLSTATKDTYDALHMQALPPR
notes: as for B2
B5: anti-BCMA CAR of recombinant lentivirus LV 15 (SEQ ID NO: 741) (other)
chain: EVQLLESGGGLVQPGGSLRLSCAASGFTFDSYTMSWYRQAPGKERELVSAISGHGDSTYYADSVKGRFTISRDNSKNTLYLQMNSLRAEDTAVYYCTRISITTEWLAGDYWGQGTQVTVSSTTTPAPRPPTPAPTIASQPLSLRPEACRPAAGGAVHTRGLDFACDIYIWAPLAGTCGVLLLSLVITLYCKRGRKKLLYIFKQPFMRPVQTTQEEDGCSCRFPEEEEGGCELRVKFSRSADAPAYQQGQNQLYNELNLGRREEYDVLDKRRGRDPEMGGKPRRKNPQEGLYNELQKDKMAEAYSEIGMKGERRRGKGHDGLYQGLSTATKDTYDALHMQALPPR
notes: as for B2
B6: anti-BCMA CAR of recombinant lentivirus LV 7 (SEQ ID NO: 477) (other)
chain: DIQMTQSPSSLSASVGDRVTITCRASQSISSYLNWYQQKPGKAPKLLIYAASSLQSGVPSRFSGSGSGTDFTLTISSLQPEDFATYYCQQAHSSPITFGGGTKVEIKGGGGSGGGGSGGGGSGGGGSEVQLLESGGGLVQPGGSLRLSCAASGFTFSNYAMSWVRQAPGKGLEWVSAISGSGGSTYYADSVKGRFTISRDNSKNTLYLQMNSLRAEDTAVYYCARPGDGYYEGVYFDYWGQGTLVTVSSTTTPAPRPPTPAPTIASQPLSLRPEACRPAAGGAVHTRGLDFACDIYIWAPLAGTCGVLLLSLVITLYCKRGRKKLLYIFKQPFMRPVQTTQEEDGCSCRFPEEEEGGCELRVKFSRSADAPAYQQGQNQLYNELNLGRREEYDVLDKRRGRDPEMGGKPRRKNPQEGLYNELQKDKMAEAYSEIGMKGERRRGKGHDGLYQGLSTATKDTYDALHMQALPPR
notes: as for B2
B7: anti-BCMA CAR of recombinant lentivirus LV 8 (SEQ ID NO: 525) (other)
chain: DIQMTQSPSSLSASVGDRVTITCQASQDIANYLNWYQQKPGKAPKLLIYDASNLETGVPSRFSGSGSGTDFTFTISSLQPEDIATYYCQQHFNLPLTFGGGTKVEIKGGGGSGGGGSGGGGSGGGGSQITLKESGPTLVKPTQTLTLTCTFSGFSLSTSGVGVGWIRQPPGKALEWLALIYWNDEKRYSPSLKSRLTITKDTSKNQVVLTMTNMDPVDTAVYYCAREGSHDYKSSNWFDPWGQGTLVTVSSTTTPAPRPPTPAPTIASQPLSLRPEACRPAAGGAVHTRGLDFACDIYIWAPLAGTCGVLLLSLVITLYCKRGRKKLLYIFKQPFMRPVQTTQEEDGCSCRFPEEEEGGCELRVKFSRSADAPAYQQGQNQLYNELNLGRREEYDVLDKRRGRDPEMGGKPRRKNPQEGLYNELQKDKMAEAYSEIGMKGERRRGKGHDGLYQGLSTATKDTYDALHMQALPPR
notes: as for B2
B8: anti-BCMA CAR of recombinant lentivirus LV 18 (SEQ ID NO: 837) (other)
chain: EVQLLESGGGLVQPGGSLRLSCAASGFTFSSEGMSWVRQAPGKERELVSAISGSGDHTYYADSVRGRFTISRDNSKNTLYLQMNSLRAEDTAVYYCNALEGGPTTAIQPGGPDYWGQGTQVTVSSTTTPAPRPPTPAPTIASQPLSLRPEACRPAAGGAVHTRGLDFACDIYIWAPLAGTCGVLLLSLVITLYCKRGRKKLLYIFKQPFMRPVQTTQEEDGCSCRFPEEEEGGCELRVKFSRSADAPAYQQGQNQLYNELNLGRREEYDVLDKRRGRDPEMGGKPRRKNPQEGLYNELQKDKMAEAYSEIGMKGERRRGKGHDGLYQGLSTATKDTYDALHMQALPPR
notes: as for B2
B9: anti-BCMA CAR of recombinant lentivirus LV 9 (SEQ ID NO: 597) (other)
chain: EVQLLESGGGLVQPGGSLRLSCAASGFTFGSEAMSWVRQAPGKERELVSAISGSGEVTYYADSVKGRFTISRDNSKNTLYLQMNSLRAEDTAVYYCQRLVEAKRHWGQGTQVTVSSTTTPAPRPPTPAPTIASQPLSLRPEACRPAAGGAVHTRGLDFACDIYIWAPLAGTCGVLLLSLVITLYCKRGRKKLLYIFKQPFMRPVQTTQEEDGCSCRFPEEEEGGCELRVKFSRSADAPAYQQGQNQLYNELNLGRREEYDVLDKRRGRDPEMGGKPRRKNPQEGLYNELQKDKMAEAYSEIGMKGERRRGKGHDGLYQGLSTATKDTYDALHMQALPPR
notes: as for B2
B10: anti-BCMA CAR of recombinant lentivirus LV 5 (SEQ ID NO: 357) (other)
chain: QVQLVESGGGLVKPGGSLRLSCAASGFTFSDYYMSWIRQAPGKGLEWVSYISSSGSTIYYADSVKGRFTISRDNAKNSLYLQMNSLRAEDTAVYYCARDQGNYGVDVWGQGTTVTVSSGGGGSGGGGSGGGGSGGGGSDIQMTQSPSTLSASVGDRVTITCRASQSISSWLAWYQQKPGKAPKLLIYEASSLESGVPSRFSGSGSGTEFTLTISSLQPDDFATYYCQQSDSHPITFGGGTKVEIKTTTPAPRPPTPAPTIASQPLSLRPEACRPAAGGAVHTRGLDFACDIYIWAPLAGTCGVLLLSLVITLYCKRGRKKLLYIFKQPFMRPVQTTQEEDGCSCRFPEEEEGGCELRVKFSRSADAPAYQQGQNQLYNELNLGRREEYDVLDKRRGRDPEMGGKPRRKNPQEGLYNELQKDKMAEAYSEIGMKGERRRGKGHDGLYQGLSTATKDTYDALHMQALPPR
notes: as for B2
B11: anti-BCMA CAR of recombinant lentivirus LV 12 (SEQ ID NO: 669) (other)
chain: EVQLLESGGGLVQPGGSLRLSCAASGFTFEDYAMSWFRQAPGKEREGVSAISGKGGSTYYADSVKGRFTISRDNSKNTLYLQMNSLRAEDTAVYYCAVLDEEAGAEGGYWGQGTQVTVSSTTTPAPRPPTPAPTIASQPLSLRPEACRPAAGGAVHTRGLDFACDIYIWAPLAGTCGVLLLSLVITLYCKRGRKKLLYIFKQPFMRPVQTTQEEDGCSCRFPEEEEGGCELRVKFSRSADAPAYQQGQNQLYNELNLGRREEYDVLDKRRGRDPEMGGKPRRKNPQEGLYNELQKDKMAEAYSEIGMKGERRRGKGHDGLYQGLSTATKDTYDALHMQALPPR
notes: as for B2
B12: anti-BCMA CAR of recombinant lentivirus LV 13 (SEQ ID NO: 693) (other)
chain: EVQLLESGGGLVQPGGSLRLSCAASGFTFDRYAMSWFRQAPGKEREGVSAISTSGDSTYYADSVKGRFTISRDNSKNTLYLQMNSLRAEDTAVYYCAVLDEEAGAEGGYWGQGTQVTVSSTTTPAPRPPTPAPTIASQPLSLRPEACRPAAGGAVHTRGLDFACDIYIWAPLAGTCGVLLLSLVITLYCKRGRKKLLYIFKQPFMRPVQTTQEEDGCSCRFPEEEEGGCELRVKFSRSADAPAYQQGQNQLYNELNLGRREEYDVLDKRRGRDPEMGGKPRRKNPQEGLYNELQKDKMAEAYSEIGMKGERRRGKGHDGLYQGLSTATKDTYDALHMQALPPR
notes: as for B2
B13: anti-BCMA CAR of recombinant lentivirus LV 10 (SEQ ID NO: 621) (other)
chain: EVQLLESGGGLVQPGGSLRLSCAASGFTFESEAMSWYRQAPGKERELVSVITSEGSTYYADSVKGRFTISRDNSKNTLYLQMNSLRAEDTAVYYCAHIEWETRLNWGQGTQVTVSSTTTPAPRPPTPAPTIASQPLSLRPEACRPAAGGAVHTRGLDFACDIYIWAPLAGTCGVLLLSLVITLYCKRGRKKLLYIFKQPFMRPVQTTQEEDGCSCRFPEEEEGGCELRVKFSRSADAPAYQQGQNQLYNELNLGRREEYDVLDKRRGRDPEMGGKPRRKNPQEGLYNELQKDKMAEAYSEIGMKGERRRGKGHDGLYQGLSTATKDTYDALHMQALPPR
notes: as for B2

Molecular target: T1, recombinant, phycoerythrin (PE) …
Assay: flow cytometry; transduced PBMCs stained with PE-labelled BCMA extracellular domain-Fc (BCMA-PE)
Experimental: 5×10⁵ human PBMCs were plated in each well of a 24-well plate. Cells were transduced with recombinant lentiviruses LV 1 to LV 19 at a MOI 2 based on the Jurkat functional titer, or a 0.5 mL volumetric transduction if MOI 2 was not achievable. Seven days post-transduction, PBMCs were harvested and stained with BCMA-PE and analyzed by flow cytometry to assess the percentage of anti-BCMA CAR expressing cells. FIG. 2B.

Binder	binding result
B1	binds
B2	binds
B3	binds
B4	binds
B5	binds
B6	binds
B7	binds
B8	binds
B9	binds
B10	binds
B11	binds
B12	binds
B13	binds

From patent US20250101122A1 (KELONIA THERAPEUTICS, published 2025)
